The text below walks through data of patent US20150267232A1, “IN VIVO AND IN VITRO CARBENE INSERTION AND NITRENE TRANSFER REACTIONS CATALYZED BY HEME ENZYMES” (California Institute of Technology, priority 2012, published 2015).

A short description of this assay: Whole-cell C—H amination of azide 1. Particulars: intact E. coli cells; for Yield sulfonamide (%) / Yield sultam (%): OD600=30, 2 mM azide 1, 24 hours; for Yield sulfonamide (%) / Yield sultam (%) / TTN: anaerobic; for TTN: added glucose; for % ee: (S − R)/(S + R). The class given is cell-based, E. coli BL21(DE3). The procedure:
Reaction conditions were as follows: 2 mM azide 1, 25 mM glucose, E. coli BL21(DE3) cells in M9-N minimal medium (OD600=30), 2.5% DMSO, oxygen depletion system (100 U ml^−1 glucose oxidase, 1400 U ml^−1 catalase) reacted for 24 hours under anaerobic conditions at 298 K. Yields determined by HPLC quantification.
(§1) Whole cell reactions used E. coli BL21(DE3) cells containing P450 or P411 catalysts, which were expressed and prepared as described elsewhere (Coelho, P. S. et al., Highly efficient carbene transfer to olefins catalyzed in vivo. Submitted (2013)). Following expression, cells were resuspended to an OD600 of 30 in M9 salts lacking NH4Cl (M9-N), and then degassed by sparging with argon in a sealed 6 mL crimp vial for at least 0.5 h. Separately, glucose (250 mM dissolved in 1×M9-N, 40 μL, or multiples thereof) was degassed by sparging with argon for at least five minutes. The oxygen quenching mixture was added to sealed 2 mL crimp vials containing stir bars and the headspace of the vials was purged with argon for five minutes at which time glucose, and then cells were added by syringe. Substrate (80 mM arylsulfonyl azide, 10 uL in DMSO) was added via syringe, and the reactions were stirred at room temperature for 24 h under positive argon pressure.
as §1, with “E.” for “Whole cell reactions used E.”, “catalysts” for “catalysts, which”, “Coelho,” for “(Coelho,”, “μL” for “uL”, “pressure. Reactions were quenched in a manner identical to reactions containing purified enzymes as described above. For chiral HPLC, the reactions were extracted and purified in an identical manner as for reactions that employed purified enzymes. Lyophilized intact cells containing sucrose as a cryoprotectant were prepared as described elsewhere (Coelho, P. S. et al., Highly efficient carbene transfer to olefins catalyzed in vivo. Submitted (2013)). The resulting cell powder, containing expressed ABC-CIS (26 mg) were added along with a stir bar to a 2 mL crimp vial and then sealed. The headspace of the vial was degassed, oxygen quenching system (40 μL) was added via syringe, followed by degassed glucose (250 mM, 40 μL), M9-N (310 μL), and finally substrate (80 mM 1, 10 μL). Lyophilized cell reactions were stirred for 24 h at room temperature, then quenched and analyzed as described above. […]” for “pressure.”
The preparative reaction was scaled up proportionally from small-scale reactions. E. coli BL21 cells containing ABC-CIS (OD600 30, 90 mL in M9-N) were sparged with argon for 45 minutes in a round bottom flask (250 mL) containing a stir bar. Separately, glucose solution (250 mM, 11.6 mL) was sparged with argon in a conical flask. The oxygen quenching mixture (10×, 11.6 mL) was degassed in a conical flask that was placed under high vacuum until slight foaming occurred (1-2 s) and then back-filled with argon; this sequence was repeated several times. Sparged glucose solution was then added to the anaerobic cell suspension via syringe, followed by the oxygen quenching system. Finally, substrate 1 (80 mM, 2.9 mL DMSO) was added dropwise via syringe, and the reaction was stirred for 24 h at room temperature. To quench the reaction, dilute HCl (3 M, 8.7 mL) and acetonitrile (125 mL) were added. […]

B1: P450BM3: wild-type cytochrome P450BM3 from Bacillus megaterium (SEQ ID NO: 1) (protein, listed as Bacillus megaterium)
chain: TIKEMPQPKTFGELKNLPLLNTDKPVQALMKIADELGEIFKFEAPGRVTRYLSSQRLIKEACDESRFDKNLSQALKFVRDFAGDGLFTSWTHEKNWKKAHNILLPSFSQQAMKGYHAMMVDIAVQLVQKWERLNADEHIEVPEDMTRLTLDTIGLCGFNYRFNSFYRDQPHPFITSMVRALDEAMNKLQRANPDDPAYDENKRQFQEDIKVMNDLVDKIIADRKASGEQSDDLLTHMLNGKDPETGEPLDDENIRYQIITFLIAGHETTSGLLSFALYFLVKNPHVLQKAAEEAARVLVDPVPSYKQVKQLKYVGMVLNEALRLWPTAPAFSLYAKEDTVLGGEYPLEKGDELMVLIPQLHRDKTIWGDDVEEFRPERFENPSAIPQHAFKPFGNGQRACIGQQFALHEATLVLGMMLKHFDFEDHTNYELDIKETLTLKPEGFVVKAKSKKIPLGGIPSPSTEQSAKKVRKKAENAHNTPLLVLYGSNMGTAEGTARDLADIAMSKGFAPQVATLDSHAGNLPREGAVLIVTASYNGHPPDNAKQFVDWLDQASADEVKGVRYSVFGCGDKNWATTYQKVPAFIDETLAAKGAENIADRGEADASDDFEGTYEEWREHMWSDVAAYFNLDIENSEDNKSTLSLQFVDSAADMPLAKMHGAFSTNVVASKELQQPGSARSTRHLEIELPKEASYQEGDHLGVIPRNYEGIVNRVTARFGLDASQQIRLEAEEEKLAHLPLAKTVSVEELLQYVELQDPVTRTQLRAMAAKTVCPPHKVELEALLEKQAYKEQVLAKRLTMLELLEKYPACEMKFSEFIALLPSIRPRYYSISSSPRVDEKQASITVSVVSGEAWSGYGEYKGIASNYLAELQEGDTITCFISTPQSEFTLPKDPETPLIMVGPGTGVAPFRGFVQARKQLKEQGQSLGEAHLYFGCRSPHEDYLYQEELENAQSEGIITLHTAFSRMPNQPKTYVQHVMEQDGKKLIELLDQGAHFYICGDGSQMAPAVEATLMKSYADVHQVSEADARLWLQQLEEKGRYAKDVWAG
modifications: cytochrome P450NADPH-P-450 reductase precursor, cytochrome P450 (BM3), CYP102A1
In the case of B1, the “Yield sulfonamide (%)” value amounted to 33%, the “Yield sultam (%)” value was determined as 0.5% and the TTN is 5.1.

B2: BM3-T268A: P450BM3 variant: T268A (protein, listed as Bacillus megaterium)
chain: TIKEMPQPKTFGELKNLPLLNTDKPVQALMKIADELGEIFKFEAPGRVTRYLSSQRLIKEACDESRFDKNLSQALKFVRDFAGDGLFTSWTHEKNWKKAHNILLPSFSQQAMKGYHAMMVDIAVQLVQKWERLNADEHIEVPEDMTRLTLDTIGLCGFNYRFNSFYRDQPHPFITSMVRALDEAMNKLQRANPDDPAYDENKRQFQEDIKVMNDLVDKIIADRKASGEQSDDLLTHMLNGKDPETGEPLDDENIRYQIITFLIAGHEATSGLLSFALYFLVKNPHVLQKAAEEAARVLVDPVPSYKQVKQLKYVGMVLNEALRLWPTAPAFSLYAKEDTVLGGEYPLEKGDELMVLIPQLHRDKTIWGDDVEEFRPERFENPSAIPQHAFKPFGNGQRACIGQQFALHEATLVLGMMLKHFDFEDHTNYELDIKETLTLKPEGFVVKAKSKKIPLGGIPSPSTEQSAKKVRKKAENAHNTPLLVLYGSNMGTAEGTARDLADIAMSKGFAPQVATLDSHAGNLPREGAVLIVTASYNGHPPDNAKQFVDWLDQASADEVKGVRYSVFGCGDKNWATTYQKVPAFIDETLAAKGAENIADRGEADASDDFEGTYEEWREHMWSDVAAYFNLDIENSEDNKSTLSLQFVDSAADMPLAKMHGAFSTNVVASKELQQPGSARSTRHLEIELPKEASYQEGDHLGVIPRNYEGIVNRVTARFGLDASQQIRLEAEEEKLAHLPLAKTVSVEELLQYVELQDPVTRTQLRAMAAKTVCPPHKVELEALLEKQAYKEQVLAKRLTMLELLEKYPACEMKFSEFIALLPSIRPRYYSISSSPRVDEKQASITVSVVSGEAWSGYGEYKGIASNYLAELQEGDTITCFISTPQSEFTLPKDPETPLIMVGPGTGVAPFRGFVQARKQLKEQGQSLGEAHLYFGCRSPHEDYLYQEELENAQSEGIITLHTAFSRMPNQPKTYVQHVMEQDGKKLIELLDQGAHFYICGDGSQMAPAVEATLMKSYADVHQVSEADARLWLQQLEEKGRYAKDVWAG
modifications: cytochrome P450NADPH-P-450 reductase precursor, cytochrome P450 (BM3), CYP102A1
For the molecule B2, the “Yield sulfonamide (%)” value was found to be 51%, the “Yield sultam (%)” value turned out to be 7.8%, the TTN was determined as 26 and the “% ee” value is reported as 84%.

B3: ABC-CIS: BM3-CIS + C400S (protein, listed as Bacillus megaterium)
chain: TIKEMPQPKTFGELKNLPLLNTDKPVQALMKIADELGEIFKFEAPGRVTRYLSSQRLIKEACDESRFDKNLSQALKFARDFAGDGLVTSWTHEKNWKKAHNILLPSFSQQAMKGYHAMMVDIAVQLVQKWERLNADEHIEVSEDMTRLTLDTIGLCGFNYRFNSFYRDQPHPFIISMVRALDEVMNKLQRANPDDPAYDENKRQFQEDIKVMNDLVDKIIADRKARGEQSDDLLTQMLNGKDPETGEPLDDGNIRYQIITFLIAGHEATSGLLSFALYFLVKNPHVLQKVAEEAARVLVDPVPSYKQVKQLKYVGMVLNEALRLWPTAPAFSLYAKEDTVLGGEYPLEKGDEVMVLIPQLHRDKTVWGDDVEEFRPERFENPSAIPQHAFKPFGNGQRASIGQQFALHEATLVLGMMLKHFDFEDHTNYELDIKETLTLKPKGFVVKAKSKKIPLGGIPSPSTEQSAKKVRKKAENAHNTPLLVLYGSNMGTAEGTARDLADIAMSKGFAPQVATLDSHAGNLPREGAVLIVTASYNGHPPDNAKQFVDWLDQASADEVKGVRYSVFGCGDKNWATTYQKVPAFIDETLAAKGAENIADRGEADASDDFEGTYEEWREHMWSDVAAYFNLDIENSEDNKSTLSLQFVDSAADMPLAKMHGAFSTNVVASKELQQPGSARSTRHLEIELPKEASYQEGDHLGVIPRNYEGIVNRVTARFGLDASQQIRLEAEEEKLAHLPLAKTVSVEELLQYVELQDPVTRTQLRAMAAKTVCPPHKVELEALLEKQAYKEQVLAKRLTMLELLEKYPACEMKFSEFIALLPSIRPRYYSISSSPRVDEKQASITVSVVSGEAWSGYGEYKGIASNYLAELQEGDTITCFISTPQSEFTLPKDPETPLIMVGPGTGVAPFRGFVQARKQLKEQGQSLGEAHLYFGCRSPHEDYLYQEELENAQSEGIITLHTAFSRMPNQPKTYVQHVMEQDGKKLIELLDQGAHFYICGDGSQMAPAVEATLMKSYADVHQVSEADARLWLQQLEEKGRYAKDVWAG
modifications: cytochrome P450NADPH-P-450 reductase precursor, cytochrome P450 (BM3), CYP102A1
notes: BM3-CIS + C400S
Regarding B3, the “Yield sulfonamide (%)” value was found to be 50%, the “Yield sultam (%)” value is reported as 46%, the TTN is listed as 680 and the “% ee” value stood at 60%.
